For 61 sequences, IC50 and Kd results are on record in the Immune Epitope Database (IEDB).

One test has as its target HLA-A*01:01. Kind of test: IEDB peptide-MHC binding, purified MHC/competitive/radioactivity; ≥ and ≤ were set here for values at or beyond the usual limits of such assays. The note with it: source organism: Clostridium botulinum.
With CSNDKSLVY, the IC50 was 115 nM.

In the case of FLDQWWTEY, the IC50 stood at 1.1 nM.

On to FVEDPNGKY, for which the IC50 was 677 nM.

On to IIEDQYNRY, for which the IC50 was found to be 179 nM.

For ISDESYRVY, the IC50 worked out at 183 nM.

For the sequence LTYKYNQFY, the IC50 was found to be 12 nM.

For the sequence TSIPFLHEY, the IC50 was determined as 618 nM.

For the sequence TSPYELSLY, the IC50 was 255 nM.

Staying with this test, now noted: source organism: Clostridium perfringens.
As for STTAGPNEY, the IC50 was 785 nM.

Staying with this test, now noted: source organism: Hepacivirus hominis.
As to LTPRCMVDY, the 50% inhibitory concentration (IC50) was determined as 538 nM.

In the case of VQDCNCSIY, the IC50 was determined as 78 nM.

Still in this test, the particulars now being: source organism: Hepatitis B virus adw/Okinawa/PODW282.
As to LTKQYLNLY, the IC50 stood at 84 nM.

In the case of PTTGRTSLY, the IC50 was 54 nM.

Staying with this test, now noted: source organism: Homo sapiens.
ETLEEITGY: the IC50 came out at 984 nM.

For GTQLFEDNY, the IC50 is 237 nM.

Take TQDLVQEKY: the IC50 was found to be 20 nM.

For the sequence YTAVVPLVY, the IC50 worked out at 1.5 nM.

The test is the same for the next values; noted with them: source organism: Mycobacterium tuberculosis.
Turning to HTEFEGQVY, the IC50 is 6.8 nM.

In the case of RSARASSRY, the IC50 is 622 nM.

For VAEGDTVIY, the IC50 amounted to 840 nM.

The same test, now with this note: source organism: Neisseria gonorrhoeae.
Regarding ASADKPYSY, the IC50 worked out at 280 nM.

For the sequence GTATYLPPY, the IC50 was 120 nM.

Take HSAEALQKY: the IC50 is 398 nM.

For the sequence KAEVHTFYY, the IC50 was 233 nM.

Take LSGNGHFHY: the concentration for half-maximal inhibition (IC50) came to 125 nM.

On to LTAGLDFAY, for which the IC50 was 26 nM.

LTEIDIRDY: the IC50 came to 65 nM.

NTFVQANLY: the IC50 worked out at 492 nM.

In another test the target is HLA-A*01:01. Kind of test: IEDB peptide-MHC binding, purified MHC/competitive/radioactivity; filed as Kd, often an IC50 or EC50 that approximates it; ≥ and ≤ were set here for values at or beyond the usual limits of such assays. The note with it: source organism: Clostridium botulinum.
Turning to DMIVDAIPY, the Kd is at least 50000 nM.

Take GMQNIYIKY: the Kd came out at 2470 nM.

Regarding ITYFKKIYY, the Kd was 2330 nM.

Regarding KSKSIFFEY, the Kd stood at 7060 nM.

Consider LHEYKQGDY, for which the Kd is at least 50000 nM.

Regarding RNEFSNVEY, the Kd was at least 50000 nM.

The test is the same for the next values; noted with them: source organism: Clostridium perfringens.
LGDGVKDHY: the Kd amounted to 11600 nM.

Staying with this test, now noted: source organism: Hepacivirus hominis.
As to FTIFKIRMY, the Kd stood at 3500 nM.

Staying with this test, now noted: source organism: Hepatitis B virus adw/Okinawa/PODW282.
As to PLDKGIKPY, the Kd is 2210 nM.

Staying with this test, now noted: source organism: Hepatitis C virus (isolate Japanese).
PGDPPQPEY: the Kd was at least 50000 nM.

Staying with this test, now noted: source organism: Human immunodeficiency virus type 1 (NEW YORK-5 ISOLATE).
With ETKLGKAGY, the Kd is at least 42000 nM.

Turning to ETPGIRYQY, the Kd worked out at 2150 nM.

The test is the same for the next values; noted with them: source organism: Human papillomavirus 16.
For the sequence FEDPTRRPY, the Kd is at least 50000 nM.

As to VCDKCLKFY, the Kd was at least 50000 nM.

Staying with this test, now noted: source organism: Influenza A virus (A/Texas/1/1977(H3N2)).
For AFDERRNKY, the Kd is at least 50000 nM.

The test is the same for the next values; noted with them: source organism: Mycobacterium tuberculosis.
SSLGLPVSY: the Kd was determined as 9660 nM.

For the sequence VTPEQRPLY, the Kd stood at 2710 nM.

The test is the same for the next values; noted with them: source organism: Neisseria gonorrhoeae.
In the case of DPEMADVTY, the Kd is at least 50000 nM.

As for EKEVVPDFY, the Kd was at least 50000 nM.

Consider FDEKNQDKY, for which the Kd was at least 50000 nM.

As to GKDLYYKNY, the Kd was at least 50000 nM.

For GTYDYWAGY, the Kd stood at 1180 nM.

For IRDMTEKQY, the Kd was at least 50000 nM.

In the case of KSWQEWNIY, the Kd is 17900 nM.

Regarding KTQNGKKQY, the Kd is at least 50000 nM.

On to LSQDALTNY, for which the Kd was determined as 2060 nM.

Regarding QNDYDEDDY, the Kd stood at 14000 nM.

For the sequence QRESTAMAY, the Kd was at least 50000 nM.

As to RPDLSLRSY, the Kd is at least 50000 nM.

Turning to RSYNLKLSY, the Kd was determined as 6220 nM.

In the case of TTRPGLAGY, the Kd was at least 35000 nM.

In the case of VREFPEDQY, the Kd is at least 50000 nM.

For the sequence YDEDDYSYY, the Kd is at least 50000 nM.
